Measured values: publication PMC9482650, “Quantitative fragmentomics allow affinity mapping of interactomes” (Nature Communications, 2022)

Experiments:
Assay in all cases: holdup assay
Parameters in all cases: key: below the threshold = too weak to quantify, mostly under pKd 3.1 to 4
Conditions in all cases: plain residues with an end cap or a label only (N-terminal biotin on a linker: ttds)
GRIP1_1, Q9Y3R0 = molecular target: T1, GRIP1_1, Q9Y3R0
T1 sequence (Q9Y3R0 48-146, limits assumed, looked up): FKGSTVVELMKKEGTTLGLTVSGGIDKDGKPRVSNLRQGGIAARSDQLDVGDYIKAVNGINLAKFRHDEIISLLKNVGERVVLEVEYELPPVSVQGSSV

Inadl_7, Q8NI35 = molecular target: Inadl_7, Q8NI35
Sequence of Inadl_7, Q8NI35 (Q8NI35 1219-1332): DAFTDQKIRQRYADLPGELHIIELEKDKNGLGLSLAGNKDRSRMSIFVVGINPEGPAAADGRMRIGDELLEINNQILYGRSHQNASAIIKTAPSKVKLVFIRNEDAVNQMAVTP

SHANK2, Q9UPX8 = molecular target: T2, SHANK2, Q9UPX8
T2 sequence (Q9UPX8 621-730, limits assumed, looked up): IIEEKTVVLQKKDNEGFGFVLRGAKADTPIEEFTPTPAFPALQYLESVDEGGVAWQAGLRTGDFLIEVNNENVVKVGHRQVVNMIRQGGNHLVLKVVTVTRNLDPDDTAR

SHROOM2, Q13796 = molecular target: T3, SHROOM2, Q13796
T3 sequence (Q13796 21-118, limits assumed, looked up): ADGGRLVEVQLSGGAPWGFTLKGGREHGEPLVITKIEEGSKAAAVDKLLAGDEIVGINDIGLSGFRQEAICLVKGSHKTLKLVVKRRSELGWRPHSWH

SCRIB_4, Q14160 = molecular target: SCRIB_4, Q14160
Sequence of SCRIB_4, Q14160 (Q14160 1095-1204): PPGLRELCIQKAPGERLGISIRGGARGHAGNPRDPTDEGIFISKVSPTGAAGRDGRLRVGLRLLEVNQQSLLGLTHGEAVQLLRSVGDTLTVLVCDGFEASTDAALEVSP

USH1C_3, Q9Y6N9 = molecular target: T4, USH1C_3, Q9Y6N9
T4 sequence (Q9Y6N9 447-547, limits assumed, looked up): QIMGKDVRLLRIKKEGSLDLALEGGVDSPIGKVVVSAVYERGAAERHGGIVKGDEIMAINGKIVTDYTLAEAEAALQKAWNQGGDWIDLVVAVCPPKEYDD

MAGI3_5, Q5TCQ9 = molecular target: MAGI3_5, Q5TCQ9
Sequence of MAGI3_5, Q5TCQ9 (Q5TCQ9 847-941): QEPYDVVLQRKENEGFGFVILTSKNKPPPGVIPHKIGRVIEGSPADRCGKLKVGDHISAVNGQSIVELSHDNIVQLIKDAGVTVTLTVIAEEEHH

PARD3_1, Q8TEW0 = molecular target: PARD3_1, Q8TEW0
Sequence of PARD3_1, Q8TEW0 (Q8TEW0 264-372): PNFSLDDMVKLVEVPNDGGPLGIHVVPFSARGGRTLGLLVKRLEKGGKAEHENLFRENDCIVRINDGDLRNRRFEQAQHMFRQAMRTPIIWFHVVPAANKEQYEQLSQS

MPDZ_13, O75970 = molecular target: T5, MPDZ_13, O75970
T5 sequence (O75970 1982-2070, limits assumed, looked up): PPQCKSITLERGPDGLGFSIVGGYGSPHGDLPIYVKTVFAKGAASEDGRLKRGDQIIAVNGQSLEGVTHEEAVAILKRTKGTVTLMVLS

MAGI1_3, Q96QZ7 = molecular target: MAGI1_3, Q96QZ7
Sequence of MAGI1_3, Q96QZ7 (Q96QZ7 638-725): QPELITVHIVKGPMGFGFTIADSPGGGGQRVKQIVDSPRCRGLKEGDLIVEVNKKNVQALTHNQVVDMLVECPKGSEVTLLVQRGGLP

PTPN13_5, Q12923 = molecular target: T6, PTPN13_5, Q12923
T6 sequence (Q12923 1877-1975, limits assumed, looked up): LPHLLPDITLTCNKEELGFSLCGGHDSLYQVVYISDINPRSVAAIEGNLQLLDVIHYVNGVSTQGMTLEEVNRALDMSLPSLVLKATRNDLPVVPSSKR

PARD3B_3, Q8TEW8 = molecular target: PARD3B_3, Q8TEW8
Sequence of PARD3B_3, Q8TEW8 (Q8TEW8 490-594): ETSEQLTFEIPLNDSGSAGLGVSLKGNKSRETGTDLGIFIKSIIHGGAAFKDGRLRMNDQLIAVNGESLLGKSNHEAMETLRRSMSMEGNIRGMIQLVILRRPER

MAGI1_4, Q96QZ7 = molecular target: MAGI1_4, Q96QZ7
Sequence of MAGI1_4, Q96QZ7 (Q96QZ7 other isoform, or with tags, fused parts or gaps): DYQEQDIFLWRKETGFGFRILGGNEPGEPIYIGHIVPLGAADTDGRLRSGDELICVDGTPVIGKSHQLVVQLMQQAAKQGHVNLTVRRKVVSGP

PARD6B, Q9BYG5 = molecular target: T7, PARD6B, Q9BYG5
T7 sequence (Q9BYG5 152-260, limits assumed, looked up): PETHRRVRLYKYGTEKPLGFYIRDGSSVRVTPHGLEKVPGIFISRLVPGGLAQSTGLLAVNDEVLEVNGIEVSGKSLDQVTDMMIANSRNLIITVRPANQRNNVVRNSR

INTU, Q9ULD6 = molecular target: T8, INTU, Q9ULD6
T8 sequence (Q9ULD6 180-273, limits assumed, looked up): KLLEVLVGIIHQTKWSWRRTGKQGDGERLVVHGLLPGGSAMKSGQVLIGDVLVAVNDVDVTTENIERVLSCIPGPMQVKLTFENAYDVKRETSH

PREX1_1, Q8TCU6 = molecular target: PREX1_1, Q8TCU6
Sequence of PREX1_1, Q8TCU6 (Q8TCU6 608-718): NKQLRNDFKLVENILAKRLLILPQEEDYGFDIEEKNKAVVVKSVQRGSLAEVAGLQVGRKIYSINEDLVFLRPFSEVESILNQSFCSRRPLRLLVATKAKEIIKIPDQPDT

RGS3, P49796-9 = molecular target: RGS3, P49796-9
Sequence of RGS3, P49796-9 (P49796 other isoform, or with tags, fused parts or gaps): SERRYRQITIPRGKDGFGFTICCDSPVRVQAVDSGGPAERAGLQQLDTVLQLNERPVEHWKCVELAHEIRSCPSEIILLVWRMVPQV

CNKSR3, Q6P9H4 = molecular target: CNKSR3, Q6P9H4
Sequence of CNKSR3, Q6P9H4 (Q6P9H4 203-303): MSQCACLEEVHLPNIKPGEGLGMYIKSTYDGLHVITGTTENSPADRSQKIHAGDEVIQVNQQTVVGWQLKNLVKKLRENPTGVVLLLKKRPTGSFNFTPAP

USH1C_1, Q9Y6N9 = molecular target: T9, USH1C_1, Q9Y6N9
T9 sequence (Q9Y6N9 82-179, limits assumed, looked up): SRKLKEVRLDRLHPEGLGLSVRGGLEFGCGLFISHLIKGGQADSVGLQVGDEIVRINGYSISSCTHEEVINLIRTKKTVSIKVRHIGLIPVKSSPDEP

PDZD2_5, O15018 = molecular target: T10, PDZD2_5, O15018
T10 sequence (O15018 2617-2716, limits assumed, looked up): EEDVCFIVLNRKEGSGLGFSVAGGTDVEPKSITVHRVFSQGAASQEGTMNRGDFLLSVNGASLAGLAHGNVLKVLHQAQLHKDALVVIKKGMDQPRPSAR

SHROOM4, Q9ULL8 = molecular target: T11, SHROOM4, Q9ULL8
T11 sequence (Q9ULL8 5-102, limits assumed, looked up): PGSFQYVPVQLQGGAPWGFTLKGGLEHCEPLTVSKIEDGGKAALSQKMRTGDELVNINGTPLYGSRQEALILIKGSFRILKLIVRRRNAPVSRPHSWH

SNTB2, Q13425 = molecular target: T12, SNTB2, Q13425
T12 sequence (Q13425 110-208, limits assumed, looked up): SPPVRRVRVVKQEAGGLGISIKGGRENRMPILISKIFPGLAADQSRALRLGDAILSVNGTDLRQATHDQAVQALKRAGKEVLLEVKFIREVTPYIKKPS

LNX2_4, Q8N448 = molecular target: T13, LNX2_4, Q8N448
T13 sequence (Q8N448 595-690, limits assumed, looked up): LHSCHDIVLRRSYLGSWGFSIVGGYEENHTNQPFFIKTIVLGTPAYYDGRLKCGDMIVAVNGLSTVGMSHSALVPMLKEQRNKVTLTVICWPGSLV

MAGI3_3, Q5TCQ9 = molecular target: MAGI3_3, Q5TCQ9
Sequence of MAGI3_3, Q5TCQ9 (Q5TCQ9 572-655): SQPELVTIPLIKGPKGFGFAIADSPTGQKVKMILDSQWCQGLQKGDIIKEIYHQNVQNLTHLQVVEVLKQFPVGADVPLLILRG

Binder | pKd (GRIP1_1, Q9Y3R0) | pKd (Inadl_7, Q8NI35) | pKd (SHANK2, Q9UPX8) | pKd (SHROOM2, Q13796) | pKd (SCRIB_4, Q14160) | pKd (USH1C_3, Q9Y6N9) | pKd (MAGI3_5, Q5TCQ9) | pKd (PARD3_1, Q8TEW0) | pKd (MPDZ_13, O75970) | pKd (MAGI1_3, Q96QZ7) | pKd (PTPN13_5, Q12923) | pKd (PARD3B_3, Q8TEW8) | pKd (MAGI1_4, Q96QZ7) | pKd (PARD6B, Q9BYG5) | pKd (PREX1_1, Q8TCU6) | pKd (RGS3, P49796-9) | pKd (CNKSR3, Q6P9H4) | pKd (USH1C_1, Q9Y6N9) | pKd (PDZD2_5, O15018) | pKd (SHROOM4, Q9ULL8) | also measured
SKPTRRETEV [HPV35-E6, P27228] | below the threshold | below the threshold | below the threshold | below the threshold | 3.78 | below the threshold | below the threshold | below the threshold | 3.77 | 4.09 | below the threshold | 3.73 | below the threshold | below the threshold | below the threshold | below the threshold | 3.57 | below the threshold | 3.77 | below the threshold | pKd (INTU, Q9ULD6): below the threshold
QRQARSETLV [HPV59-E6, Q81964] | below the threshold | below the threshold | 4.47 | below the threshold | below the threshold | below the threshold | 4.62 | below the threshold | below the threshold | 5.25 | 4.52 | below the threshold | 4.65 | below the threshold | below the threshold | below the threshold | below the threshold | below the threshold | below the threshold | below the threshold | pKd (SNTB2, Q13425): below the threshold; pKd (LNX2_4, Q8N448): 4.61; pKd (INTU, Q9ULD6): below the threshold; pKd (MAGI3_3, Q5TCQ9): below the threshold
RHTTSTETAV [HPV30-E6, P36809] | 4.59 | below the threshold | below the threshold | below the threshold | 4.59 | below the threshold | below the threshold | below the threshold | below the threshold | 4.72 | below the threshold | below the threshold | below the threshold | below the threshold | below the threshold | below the threshold | below the threshold | below the threshold | below the threshold | 4.73 | pKd (SNTB2, Q13425): 4.68; pKd (LNX2_4, Q8N448): below the threshold; pKd (INTU, Q9ULD6): below the threshold; pKd (MAGI3_3, Q5TCQ9): below the threshold
SSLQSLETSV [ATP2B4, P23634] | below the threshold | below the threshold | below the threshold | below the threshold | 4.38 | below the threshold | below the threshold | below the threshold | below the threshold | 4.44 | below the threshold | below the threshold | below the threshold | below the threshold | below the threshold | below the threshold | below the threshold | below the threshold | below the threshold | 4.68 | pKd (SNTB2, Q13425): 4.87; pKd (LNX2_4, Q8N448): below the threshold; pKd (INTU, Q9ULD6): below the threshold; pKd (MAGI3_3, Q5TCQ9): below the threshold
RLQRRRETQV [HPV18-E6, P06463] | below the threshold | below the threshold | below the threshold | below the threshold | below the threshold | below the threshold | below the threshold | below the threshold | below the threshold | below the threshold | below the threshold | below the threshold | 4.28 | below the threshold | below the threshold | below the threshold | 4.1 | below the threshold | below the threshold | below the threshold | pKd (SNTB2, Q13425): 4.58; pKd (LNX2_4, Q8N448): below the threshold; pKd (INTU, Q9ULD6): below the threshold; pKd (MAGI3_3, Q5TCQ9): below the threshold
RPLPRKVSQL [DOCK4, Q8N1I0] | 4.15 | 4.45 | below the threshold | below the threshold | below the threshold | below the threshold | below the threshold | below the threshold | below the threshold | below the threshold | below the threshold | below the threshold | below the threshold | below the threshold | below the threshold | below the threshold | below the threshold | below the threshold | below the threshold | below the threshold | pKd (SNTB2, Q13425): below the threshold; pKd (LNX2_4, Q8N448): below the threshold; pKd (MAGI3_3, Q5TCQ9): below the threshold
